Test results reported in US20030152568A1.

Target: FGF receptor-3c on human osteosarcoma cell line (ATCC, CRL 1543) (human) (UniProt P22607)
Test: cell-based or functional assay

Sequence of FGF-18-saporin conjugate (O76093 28-207): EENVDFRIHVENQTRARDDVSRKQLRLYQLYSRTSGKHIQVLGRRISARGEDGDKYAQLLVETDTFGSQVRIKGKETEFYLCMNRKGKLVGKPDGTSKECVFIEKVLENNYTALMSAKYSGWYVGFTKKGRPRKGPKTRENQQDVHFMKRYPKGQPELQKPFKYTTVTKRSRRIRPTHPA
Sequence of UniProt P22607 (P22607 23-806): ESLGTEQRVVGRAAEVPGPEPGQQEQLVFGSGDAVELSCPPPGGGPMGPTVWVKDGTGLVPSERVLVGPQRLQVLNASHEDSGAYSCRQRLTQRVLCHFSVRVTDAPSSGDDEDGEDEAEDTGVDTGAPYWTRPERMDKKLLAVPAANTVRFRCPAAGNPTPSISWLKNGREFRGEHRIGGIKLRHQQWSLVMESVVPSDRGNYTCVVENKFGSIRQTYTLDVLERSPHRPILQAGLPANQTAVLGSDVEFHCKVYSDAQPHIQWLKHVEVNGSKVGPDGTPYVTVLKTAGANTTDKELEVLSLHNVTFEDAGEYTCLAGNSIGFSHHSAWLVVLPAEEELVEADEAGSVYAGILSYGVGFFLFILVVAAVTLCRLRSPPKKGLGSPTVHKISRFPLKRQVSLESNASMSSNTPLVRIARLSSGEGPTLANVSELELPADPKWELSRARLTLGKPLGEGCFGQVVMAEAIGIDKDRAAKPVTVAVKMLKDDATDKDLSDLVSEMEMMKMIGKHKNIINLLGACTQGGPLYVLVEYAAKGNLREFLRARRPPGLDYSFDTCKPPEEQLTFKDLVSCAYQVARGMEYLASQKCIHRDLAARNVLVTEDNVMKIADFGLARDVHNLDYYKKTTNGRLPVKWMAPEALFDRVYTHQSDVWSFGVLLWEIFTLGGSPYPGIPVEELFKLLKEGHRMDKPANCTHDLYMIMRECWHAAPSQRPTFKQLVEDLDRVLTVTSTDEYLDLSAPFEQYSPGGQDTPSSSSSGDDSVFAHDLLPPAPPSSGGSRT

Substance: FGF-18-saporin conjugate
- LD50 (sensitivity of cell lines to the FGF-18-saporin conjugate): < 1 nM
